We go through four molecules from patent US20210388105A1 (ELPISCIENCE SUZHOU BIOPHARMA, published 2021).

The target of assay [1] is T1, 6×His tagged human CD39 (human, UniProt P49961 38-478).
T1 construct: Analyte in the Biacore assay
T1 sequence: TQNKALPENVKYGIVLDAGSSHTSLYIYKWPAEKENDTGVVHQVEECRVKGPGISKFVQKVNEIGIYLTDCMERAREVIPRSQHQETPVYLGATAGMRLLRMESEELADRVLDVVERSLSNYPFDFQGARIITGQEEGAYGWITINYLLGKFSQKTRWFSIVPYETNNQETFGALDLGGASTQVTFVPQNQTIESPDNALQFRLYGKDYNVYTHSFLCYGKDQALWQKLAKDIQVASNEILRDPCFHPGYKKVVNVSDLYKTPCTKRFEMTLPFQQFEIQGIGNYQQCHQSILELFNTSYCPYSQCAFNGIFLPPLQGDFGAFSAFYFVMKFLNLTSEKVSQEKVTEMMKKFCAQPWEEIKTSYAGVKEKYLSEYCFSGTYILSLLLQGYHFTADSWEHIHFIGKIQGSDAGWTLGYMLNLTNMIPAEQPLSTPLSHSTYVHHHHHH
Put plainly: Biacore SPR, antibody captured on CM5 chip, His-tagged CD39 as analyte. The method, then:
In particular, humanized antibodies hu23.H5L5, hu23.201, hu14.H1L1 and reference antibodies 1394 and T895 were characterized for binding affinity against human CD39 using Biacore (GE). Briefly the antibodies to be tested were captured to CM5 chip (GE) using Human Antibody Capture Kit (GE). The antigen of 6×His tagged human CD39 was serially diluted for multiple doses and injected at 30 μl/min for 180s. Buffer flow was maintained for dissociation of 400s. 3 M MgCl2 was used for chip regeneration. The association and dissociation curves were fit with 1:1 binding model, and the Ka/Kd/KD values for each antibody were calculated.
(In general: SPR reads the build-up and loss of mass on a sensor chip optically.)

For assay [2], the target named is T2, human CD39 (full length, on cells) (human, UniProt P49961 1-510).
T2 construct: Recombinant on CHOK1-hCD39 cells or natural on SK-MEL-28, SK-MEL-5 and MOLP-8 cells; the cell line is named under assay; also called hCD39; ENTPD1
T2 sequence: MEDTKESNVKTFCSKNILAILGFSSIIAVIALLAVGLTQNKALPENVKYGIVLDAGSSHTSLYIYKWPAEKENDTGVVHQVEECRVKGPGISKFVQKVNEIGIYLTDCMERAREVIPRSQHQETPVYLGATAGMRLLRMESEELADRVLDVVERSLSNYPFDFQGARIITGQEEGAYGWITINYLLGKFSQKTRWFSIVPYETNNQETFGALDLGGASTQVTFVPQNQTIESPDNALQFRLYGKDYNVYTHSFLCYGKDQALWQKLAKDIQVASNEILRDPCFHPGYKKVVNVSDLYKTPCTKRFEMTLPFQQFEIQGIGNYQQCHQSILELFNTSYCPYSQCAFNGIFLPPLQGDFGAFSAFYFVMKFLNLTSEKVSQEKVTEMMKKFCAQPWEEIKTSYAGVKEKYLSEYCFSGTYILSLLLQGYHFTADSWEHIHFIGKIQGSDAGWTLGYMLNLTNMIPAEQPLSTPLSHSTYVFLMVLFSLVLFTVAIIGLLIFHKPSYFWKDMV
Put plainly: FACS, SK-MEL-28 cells. The gist of the method:
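SK-MEL-28 cells (natural human CD39) incubated with graded anti-CD39 antibody concentrations, 30 min at 4° C, washed, then stained with fluorescent anti-mouse or anti-human IgG secondary, 30 min at 4° C. Binding read by flow cytometry.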
Background: A flow cytometer gives signals particle by particle.

For assay [3], the target named is T3, mouse CD39 (full length, on CHOK1-mCD39 cells) (mouse, UniProt P55772 1-510).
T3 construct: whole, on cells
T3 sequence (looked up): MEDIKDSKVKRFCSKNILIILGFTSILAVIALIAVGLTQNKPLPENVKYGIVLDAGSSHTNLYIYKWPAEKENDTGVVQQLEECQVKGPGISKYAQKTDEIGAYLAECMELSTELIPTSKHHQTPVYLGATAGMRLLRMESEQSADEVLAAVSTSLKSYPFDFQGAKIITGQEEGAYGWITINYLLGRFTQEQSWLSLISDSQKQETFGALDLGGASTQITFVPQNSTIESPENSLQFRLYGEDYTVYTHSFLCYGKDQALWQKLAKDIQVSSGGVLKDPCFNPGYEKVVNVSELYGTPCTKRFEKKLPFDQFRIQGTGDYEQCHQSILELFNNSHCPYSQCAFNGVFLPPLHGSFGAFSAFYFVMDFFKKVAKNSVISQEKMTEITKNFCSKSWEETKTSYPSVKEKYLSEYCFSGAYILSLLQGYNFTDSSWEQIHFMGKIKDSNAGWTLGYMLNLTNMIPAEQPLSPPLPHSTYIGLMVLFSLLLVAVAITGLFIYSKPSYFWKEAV
The experiment in a line: FACS, CHOK1-mCD39 cells. The procedure, abridged: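 Cells incubated 60 min at 4 °C with anti-CD39 antibodies in 4-fold serial dilution from 30 μg/ml in PBS/1% FBS/0.05% Tween-20; CHOK1-blank cells as negative control. Binding read by flow cytometry as mean fluorescence intensity; apparent affinity fitted from full binding curves.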

For orientation: Kd means the equilibrium constant for the complex coming apart. Read a high Kd as lower affinity. A word on the koff: it is the first-order rate constant of dissociation. The low end stands for a long-lived complex, the high end for a short-lived complex. What is called kon is a measure of how fast the partners come together. Read a low kon as slow association. One may read the EC50 as the concentration that produces a half-maximal response.

B1: Antibody T895 (antibody, V domains shown)
VH: EVQLQQSGPELVKPGASVKMSCKASGYTFTDYNMHWVKQSHGRTLEWIGYIVPLNGGSTFNQKFKGRATLTVNTSSRTAYMELRSLTSEDSAAYYCARGGTRFAYWGQGTLVTVSA
VL: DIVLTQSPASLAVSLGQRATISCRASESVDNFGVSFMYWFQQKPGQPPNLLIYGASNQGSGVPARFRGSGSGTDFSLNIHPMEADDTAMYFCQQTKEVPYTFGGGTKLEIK
notes: also called 31895
As to B1, in assay [1], the dissociation constant Kd turned out to be 1040 nM, the off-rate constant (koff) stood at 0.139 s⁻¹ and the on-rate constant (kon) was 133000 M⁻¹ s⁻¹.

B2: hu23.H5L5 (antibody, V domains shown)
VH: QVQLVQSGAEVKKPGASVKVSCKASGYNLKDTFLHWVRQAPGQGLEWMGRIDPANGNIKYDPKFQGRVTITADTSANTAYMELISLRSEDTAVYYCANSPYYYGSGYRIFDVWGQGTTVTVSS
VL: QIVLTQSPATLSLSPGERATLSCSAFSSVNYMHWYQQKPGQAPRLLIYTTSNLASGIPTRFSGSGSGTSYTLTISSLEPEDFAVYYCQQRSTYPFTFGQGTKLEIK
notes: humanized c23
In assay [1], B2 displayed a Kd of 19.5 nM, a koff of 0.0016 s⁻¹ and an on-rate constant (kon) of 82200 M⁻¹ s⁻¹.

B3: mAb14 (antibody, V domains shown)
VH: EVKLEESGGGLVQPGGSMKLSCVASGFTFSKYWMNWVRQSPEKGLEWVAEIRLKSNKYGTHYAESVKGRFTISRDDSKNNVYLQMNNLRPEDTGIYYCTTQLDLYWFFDVWGAGTTVTVSS
VL: DIVMTQSPAILSVTPGDRVSLSCRASQSISDYLHWYQQKSHESPRLLIKYASQSISGIPSRFSGSGSGSNFTLSINSVEPEDVGVYFCQNGHSLPLTFGAGTKLELR
notes: mouse hybridoma antibody
Turning to B3, in assay [2], it took 28 nM to reach a half-maximal effect (EC50). In addition, the binding result in assay [3] is reported as “no binding (tested: 30 µg/ml highest concentration)”.

B4: Antibody 9-8B (antibody, V domains shown)
VH: QIQLVQSGPELKKPGETVKISCKASGYTFTHYGMNWVKQAPGKGLKWMGWINTYTGELTYADDFKGRFAFSLETSASTAYLQINNLKNEDTATYFCARRAYYRYDYVMDYWGQGTSVTVSS
VL: DIVMTQSQKFMSTSVGDRVSVTCKASHNVGTNVAWYQQKPGQSPKALIYSASYRYSGVPGRFTGSGSGTDFTLTISNVQSEDLAEYFCHQYNNYPYTFGGGTKLEIK
Molecule B4 gave a concentration for a half-maximal effect (EC50) in assay [2] of 0.8 nM. Also, in assay [3], the binding result is reported as “no binding (tested: 30 µg/ml highest concentration)”.
